Assay results taken from article PMC6715622.

How the values were obtained:
Test in all cases: EMSA
[1] = test system: RsmA4 (Pseudomonas syringae pv. tomato DC3000)
[2] = test system: RsmA1 (Pseudomonas syringae pv. tomato DC3000)
[3] = test system: RsmA3 (Pseudomonas syringae pv. tomato DC3000)
[4] = test system: RsmA2 (Pseudomonas syringae pv. tomato DC3000)

Row | Substance | binding signal [1] [nM] | binding signal [2] [nM] | binding signal [3] [nM] | binding signal [4] [nM]
1 | rsmX1 | 640 | 320 | 40 | 40
2 | rsmX5 | 640 | 320 | 40 | 40
3 | rsmY | 640 | 320 | 40 | 40
4 | rsmZ | 640 | 320 | 40 | 40
